{"source": "paper PMC7619206", "about": "“Human mitochondrial glutathione transferases: Kinetic parameters and accommodation of a mitochondria-targeting group in substrates” (Bioorganic & medicinal chemistry, 2024)", "molecules": {"B1": {"name": "hGSTA4-4 (Homo sapiens) (protein)", "chain": "MAARPKLHYPNGRGRMESVRWVLAAAGVEFDEEFLETKEQLYKLQDGNHLLFQQVPMVEIDGMKLVQTRSILHYIADKHNLFGKNLKERTLIDMYVEGTLDLLELLIMHPFLKPDDQQKEVVNMAQKAIIRYFPVFEKILRGHGQSFLVGNQLSLADVILLQTILALEEKIPNILSAFPFLQEYTVKLSNIPTIKRFLEPGSKKKPPPDEIYVRTVYNIFRP", "notes": "N-terminal 6xHis tag and TEV site (pNIC-28-BsaI), not cleaved; E. coli BL21(DE3), codon-optimised synthetic gene; Ni-NTA"}, "B2": {"name": "hGSTK1-1 (Homo sapiens) (protein)", "chain": "MGPLPRTVELFYDVLSPYSWLGFEILCRYQNIWNINLQLRPSLITGIMKDSGNKPPGLLPRKGLYMANDLKLLRHHLQIPIHFPKDFLSVMLEKGSLSAMRFLTAVNLEHPEMLEKASRELWMRVWSRNEDITEPQSILAAAEKAGMSAEQAQGLLEKIATPKVKNQLKETTEAACRYGAFGLPITVAHVDGQTHMLFGSDRMELLAHLLGEKWMGPIPPAVNARL", "notes": "as for B1"}, "B3": {"name": "hGSTA1-1 (Homo sapiens) (protein)", "chain": "MAEKPKLHYFNARGRMESTRWLLAAAGVEFEEKFIKSAEDLDKLRNDGYLMFQQVPMVEIDGMKLVQTRAILNYIASKYNLYGKDIKERALIDMYIEGIADLGEMILLLPVCPPEEKDAKLALIKEKIKNRYFPAFEKVLKSHGQDYLVGNKLSRADIHLVELLYYVEELDSSLISSFPLLKALKTRISNLPTVKKFLQPGSPRKPPMDEKSLEEARKIFRF", "notes": "as for B1"}}, "key": {"hGSTA4-4": {"molecular_target": "T1, hGSTA4-4 (Homo sapiens, UniProt O15217)", "T1 construct": "gene GSTA4", "T1 sequence (O15217 1-222)": "B1 chain", "test": "UV/Vis initial rates of GS-conjugate formation, Michaelis-Menten fit", "conditions": "read-out: hGSTA4-4; 10 mM GSH, 0.1 M HEPES pH 8.0, 30 °C"}, "hGSTA1-1": {"molecular_target": "T2, hGSTA1-1 (Homo sapiens, UniProt P08263)", "T2 construct": "gene GSTA1", "T2 sequence (P08263 1-222)": "B3 chain", "test": "UV/Vis initial rates of GS-conjugate formation, Michaelis-Menten fit", "conditions": "read-out: KM (mM) / hGSTA1-1; 10 mM GSH, 0.1 M HEPES pH 8.0, 30 °C"}, "hGSTK1-1": {"molecular_target": "T3, hGSTK1-1 (Homo sapiens, UniProt Q9Y2Q3)", "T3 construct": "gene GSTK1", "T3 sequence (Q9Y2Q3 1-226)": "B2 chain", "test": "UV/Vis initial rates of GS-conjugate formation, Michaelis-Menten fit", "conditions": "read-out: hGSTK1-1; 10 mM GSH, 0.1 M HEPES pH 8.0, 30 °C"}, "[1]": {"substrate": "COC(=O)c1cc([N+](=O)[O-])ccc1Cl", "test": "UV/Vis initial rates of GS-conjugate formation, Lineweaver-Burk fit", "format": "biochemical, Homo sapiens", "conditions": "10 mM GSH, 0.1 M HEPES pH 8.0, 30 °C", "text": "(§1) UV/Vis initial rates of GS-conjugate formation, Lineweaver-Burk fit on hGSTA4-4"}, "[2]": {"substrate": "COC(=O)c1ccc(Cl)c([N+](=O)[O-])c1", "test": "UV/Vis initial rates of GS-conjugate formation, Lineweaver-Burk fit", "format": "biochemical, Homo sapiens", "conditions": "10 mM GSH, 0.1 M HEPES pH 8.0, 30 °C", "text": "as §1"}, "purified protein [3]": {"substrate": "O=C(NCCCCC[P+](c1ccccc1)(c1ccccc1)c1ccccc1)c1ccc(Cl)c([N+](=O)[O-])c1", "test": "purified protein", "conditions": "10 mM GSH, 0.1 M HEPES pH 8.0, 30 °C"}, "purified protein [4]": {"substrate": "O=[N+]([O-])c1cc([N+](=O)[O-])c(NCCCC[P+](c2ccccc2)(c2ccccc2)c2ccccc2)cc1Cl", "test": "purified protein", "conditions": "10 mM GSH, 0.1 M HEPES pH 8.0, 30 °C"}, "[5]": {"substrate": "COC(=O)c1cc([N+](=O)[O-])ccc1Cl", "test": "UV/Vis initial rates of GS-conjugate formation, Lineweaver-Burk fit", "format": "biochemical, Homo sapiens", "conditions": "10 mM GSH, 0.1 M HEPES pH 8.0, 30 °C", "text": "(§2) UV/Vis initial rates of GS-conjugate formation, Lineweaver-Burk fit on hGSTK1-1", "remark": "listed apart in the source"}, "[6]": {"substrate": "COC(=O)c1ccc(Cl)c([N+](=O)[O-])c1", "test": "UV/Vis initial rates of GS-conjugate formation, Lineweaver-Burk fit", "format": "biochemical, Homo sapiens", "conditions": "10 mM GSH, 0.1 M HEPES pH 8.0, 30 °C", "text": "as §2", "remark": "listed apart in the source"}, "[7]": {"substrate": "COC(=O)c1cc([N+](=O)[O-])ccc1Cl", "test": "UV/Vis initial rates of GS-conjugate formation, Lineweaver-Burk fit", "format": "biochemical, Homo sapiens", "conditions": "10 mM GSH, 0.1 M HEPES pH 8.0, 30 °C", "text": "(§3) UV/Vis initial rates of GS-conjugate formation, Lineweaver-Burk fit on hGSTA1-1", "remark": "listed apart in the source"}, "[8]": {"substrate": "COC(=O)c1ccc(Cl)c([N+](=O)[O-])c1", "test": "UV/Vis initial rates of GS-conjugate formation, Lineweaver-Burk fit", "format": "biochemical, Homo sapiens", "conditions": "10 mM GSH, 0.1 M HEPES pH 8.0, 30 °C", "text": "as §3", "remark": "listed apart in the source"}, "purified protein [9]": {"substrate": "O=C(NCCCCC[P+](c1ccccc1)(c1ccccc1)c1ccccc1)c1cc([N+](=O)[O-])ccc1Cl", "test": "purified protein", "conditions": "10 mM GSH, 0.1 M HEPES pH 8.0, 30 °C"}}, "data": [{"molecule": "O=[N+]([O-])c1ccc(Cl)c([N+](=O)[O-])c1", "note": "[compound 1, 1-chloro-2,4-dinitrobenzene]", "values": [{"measurement": "Km", "setting": "hGSTA4-4", "value": "253 ± 52", "unit": "µM"}, {"measurement": "Km", "setting": "hGSTA1-1", "value": "0.128 ± 0.018", "unit": "mM"}, {"measurement": "Km", "setting": "hGSTK1-1", "value": "1900 ± 320", "unit": "µM"}]}, {"molecule": "B1", "values": [{"measurement": "Km", "setting": "[1]", "value": "949 ± 27", "unit": "µM"}, {"measurement": "kcat", "setting": "[1]", "value": "(5.61 ± 0.37) x 10^-2 s^-1"}, {"measurement": "Km", "setting": "[2]", "value": "3580 ± 90", "unit": "µM"}, {"measurement": "kcat", "setting": "[2]", "value": "0.521 ± 0.203", "unit": "s⁻¹"}, {"measurement": "Km", "setting": "purified protein [3]", "value": "826 ± 5", "unit": "µM"}, {"measurement": "kcat", "setting": "purified protein [3]", "value": "2.13 ± 0.05", "unit": "s⁻¹"}, {"measurement": "Km", "setting": "purified protein [4]", "value": "142 ± 9", "unit": "µM"}, {"measurement": "kcat", "setting": "purified protein [4]", "value": "4.59 ± 0.08", "unit": "s⁻¹"}]}, {"molecule": "B2", "values": [{"measurement": "Km", "setting": "[5]", "value": "1540 ± 30", "unit": "µM"}, {"measurement": "kcat", "setting": "[5]", "value": "(9.45 ± 0.68) x 10^-2 s^-1"}, {"measurement": "Km", "setting": "[6]", "value": "301 ± 8", "unit": "µM"}, {"measurement": "kcat", "setting": "[6]", "value": "0.106 ± 0.008", "unit": "s⁻¹"}, {"measurement": "Km", "setting": "purified protein [4]", "value": "360 ± 67", "unit": "µM"}, {"measurement": "kcat", "setting": "purified protein [4]", "value": "0.103 ± 0.008", "unit": "s⁻¹"}]}, {"molecule": "B3", "values": [{"measurement": "Km", "setting": "[7]", "value": "1670 ± 50", "unit": "µM"}, {"measurement": "kcat", "setting": "[7]", "value": "2.31 ± 0.55", "unit": "s⁻¹"}, {"measurement": "Km", "setting": "[8]", "value": "2050 ± 770", "unit": "µM"}, {"measurement": "kcat", "setting": "[8]", "value": "8.85 ± 2.79", "unit": "s⁻¹"}, {"measurement": "Km", "setting": "purified protein [9]", "value": "720 ± 17", "unit": "µM"}, {"measurement": "kcat", "setting": "purified protein [9]", "value": "(4.67 ± 0.19) x 10^-2 s^-1"}, {"measurement": "Km", "setting": "purified protein [3]", "value": "441 ± 10", "unit": "µM"}, {"measurement": "kcat", "setting": "purified protein [3]", "value": "9.50 ± 0.45", "unit": "s⁻¹"}, {"measurement": "Km", "setting": "purified protein [4]", "value": "146 ± 20", "unit": "µM"}, {"measurement": "kcat", "setting": "purified protein [4]", "value": "14.7 ± 0.6", "unit": "s⁻¹"}]}]}
